Source: publication PMC12527216

Tests used:
[1] = molecular target: recombinant soluble CD4 engineered with a deletion in the transmembrane region but retaining the cytoplasmic tail (UniProt P01730); experiment: ELISA; as a1, but HIVBaL treated beforehand with acidified media at pH 3.8 (HCl adjusted) for 60 min at 37°C
[2] = molecular target: recombinant soluble CD4 engineered with a deletion in the transmembrane region but retaining the cytoplasmic tail (UniProt P01730); experiment: ELISA; as a1, but HIVBaL treated beforehand with 1% (w/w) (110 mM) L-lactic acid at pH 3.8 for 60 min at 37°C

## virion-associated trimeric gp120 envelope glycoprotein of HIV-1 BaL (on HIVBaL virions) (natural protein)
[1]
  fold reduction in rCD4 binding relative to untreated HIV-1: 2 fold
[2]
  fold reduction in rCD4 binding relative to untreated HIV-1: 2 fold
